Laboratory results taken from article PMC6123711, “Conformational signatures in β-arrestin2 reveal natural biased agonism at a G-protein-coupled receptor” (Communications Biology, 2018).

B1: Spexin (peptide, UniProt Q9BT56 27-116, looked up)
Spexin: APQRLLERRNWTPQAMLYLKGAQGRRFISDQSRRKDLSDRPLPERRSPNPQLLTIPEAATILLASLQKSPEDEEKNFDQTRFLEDSLLNW
modifications: Spexin
notes: endogenous peptide ligand of Galr2 and Galr3; synthesized by AnyGen

How the values were obtained:
human Galr2 = experiment: Recruitment of β-arrestin2-FlasH1-3 to Galr2 (NanoBit); format: cell-based; conditions: NanoBit luminescence
From the text: To investigate the effects of GPCR activation on the dynamics of β-arrestin2 conformation, we developed a series of FlasH BRET conformational biosensors[31],[32] by inserting the six-amino-acid motif, CCPGCC, immediately after the amino acid residue 140 (FlasH1), 263 (FlasH2), and 410 (FlasH3), respectively, into the human β-arrestin2 (Fig. 7a, b). Due to its characteristics (e.g., small size, stable, and bright and sustained luminescence)[33], we covalently linked the Nluc to the N terminus of β-arrestin2 during probe design. Each probe (Nluc–β-arrestin2–FlasH1, 2, and 3) was designed to measure BRET between Nluc and a fluorescein arsenical acceptor located at one of three positions along β-arrestin2. […] All three ligands were able to recruit these β-arrestin2–FlasH constructs to induce luminescence signals, although some signals were lower than that of wild-type β-arrestin2 (Fig. 7c). […]
The arrows indicate the time for treatment with the corresponding agonist. d Nluc–β-arrestin2–FlasH1-3 “conformational hallmarks” of β-arrestin2 by binding to Galr2. The bar graphs depict mean ± s.e.m. values of independent biological replicates (n = 3). *P < 0.05, **P < 0.005, statistically significant differences versus Galanin-stimulated control as determined by a one-way analysis of variance (ANOVA). […]

[1] = system: human β-arrestin2 (Galr2-stimulated); experiment: Intramolecular FlasH BRET at β-arrestin2 conformational biosensors; format: cell-based; conditions: HEK293 cells, 10 μM agonist
From the text: To investigate the effects of GPCR activation on the dynamics of β-arrestin2 conformation, we developed a series of FlasH BRET conformational biosensors[31],[32] by inserting the six-amino-acid motif, CCPGCC, immediately after the amino acid residue 140 (FlasH1), 263 (FlasH2), and 410 (FlasH3), respectively, into the human β-arrestin2 (Fig. 7a, b). Due to its characteristics (e.g., small size, stable, and bright and sustained luminescence)[33], we covalently linked the Nluc to the N terminus of β-arrestin2 during probe design. Each probe (Nluc–β-arrestin2–FlasH1, 2, and 3) was designed to measure BRET between Nluc and a fluorescein arsenical acceptor located at one of three positions along β-arrestin2. We hypothesized that observing changes in BRET efficiency from multiple sites would produce a β-arrestin2 conformational hallmark characteristic for each ligand[31]. We used a structural complementation assay based on NanoBit technology to test whether the insertion of the FlasH motif would have an effect on β-arrestin2 recruitment. All three ligands were able to recruit these β-arrestin2–FlasH constructs to induce luminescence signals, although some signals were lower than that of wild-type β-arrestin2 (Fig. 7c). […]
Intramolecular BRET at β-arrestin2 conformational biosensors was measured based on the steps and procedures previously described. […]

Molecule	recruitment of β-arrestin2–FlasH1-3 constructs (human Galr2)	ΔNet BRET in Nluc–β-arrestin2–FlasH1-3 versus Galanin ([1]; 2 min, n = 3, each probe)	ΔNet BRET similarity between Spexin and Fmoc-dA4-dQ14 ([1]; FlasH1-3 biosensors)
Galanin [reference compound]	maximal response	–	–
B1	–	significantly different from those observed in Galanin	very similar between Spexin and Fmoc-dA4-dQ14 except for the FlasH3 conformational biosensor
